# Laboratory results published in IntAct's records for PubMed 20802513.
# B1: Focal adhesion kinase 1 (Gallus gallus (Chicken)), Q00944 (parent)
# chain: MAAAYLDPNLNHTPSSSAKTHLGTGMERSPGAMERVLKVFHYFENSSEPTTWASIIRHGDATDVRGIIQKIVDCHKVKNVACYGLRLSHLQSEEVHWLHLDMGVSNVREKFELAHPPEEWKYELRIRYLPKGFLNQFTEDKPTLNFFYQQVKNDYMLEIADQVDQEIALKLGCLEIRRSYGEMRGNALEKKSNYEVLEKDVGLRRFFPKSLLDSVKAKTLRKLIQQTFRQFANLNREESILKFFEILSPVYRFDKECFKCALGSSWIISVELAIGPEEGISYLTDKGANPTHLADFNQVQTIQYSNSEDKDRKGMLQLKIAGAPEPLTVTAPSLTIAENMADLIDGYCRLVNGATQSFIIRPQKEGERALPSIPKLANNEKQGVRSHTVSVSETDDYAEIIDEEDTYTMPSTRDYEIQRERIELGRCIGEGQFGDVHQGIYMSPENPAMAVAIKTCKNCTSDSVREKFLQEALTMRQFDHPHIVKLIGVITENPVWIIMELCTLGELRSFLQVRKFSLDLASLILYAYQLSTALAYLESKRFVHRDIAARNVLVSATDCVKLGDFGLSRYMEDSTYYKASKGKLPIKWMAPESINFRRFTSASDVWMFGVCMWEILMHGVKPFQGVKNNDVIGRIENGERLPMPPNCPPTLYSLMTKCWAYDPSRRPRFTELKAQLSTILEEEKLQQEERMRMESRRQVTVSWDSGGSDEAPPKPSRPGYPSPRSSEGFYPSPQHMVQPNHYQVSGYSGSHGIPAMAGSIYPGQASLLDQTDSWNHRPQEVSAWQPNMEDSGTLDVRGMGQVLPTHLMEERLIRQQQEMEEDQRWLEKEERFLVMKPDVRLSRGSIEREDGGLQGPAGNQHIYQPVGKPDHAAPPKKPPRPGAPHLGSLASLNSPVDSYNEGVKIKPQEISPPPTANLDRSNDKVYENVTGLVKAVIEMSSKIQPAPPEEYVPMVKEVGLALRTLLATVDESLPVLPASTHREIEMAQKLLNSDLAELINKMKLAQQYVMTSLQQEYKKQMLTAAHALAVDAKNLLDVIDQARLKMISQSRPH
# Variants of: B1
# Details: with pgfrb_human PDGFRB
row,effect of a mutation on the interaction,Variant
1,disrupting interaction,Y5F;Y194F
